The target of series [1] is T1, SST2 (AR42J rat pancreatic tumour membranes) (Rattus norvegicus, UniProt P30680).
T1 construct: which is not the case for the AR42J model endogenously expressing SST2; host or cells: AR42J rat acinar pancreatic tumour cell line (membrane preparation)
Briefly: Saturation binding assay on AR42J cell membranes. The following applies: AR42J cell membrane suspension 10 µg/well; radioligand 0.075-10 nM; one-site binding model; γ-counter; mean ± SEM. Here is the method: The SST2-expressing AR42J, acinar pancreatic tumour cell line derived from a transplantable tumour of a rat exocrine pancreas, was provided by ATCC (LGC Standards, Molsheim, France). Cells were cultured in RPMI 1640 medium (Dutscher, Bernolsheim, France), supplemented with 10% foetal calf serum (PAN-Biotech, Aidenbach, Germany), in a humidified atmosphere at 37 °C with 5% CO2. AR42J membranes were obtained by sonication in 50 mM Tris–HCl, pH 7.4, and centrifugation at 39,000× g for 10 min at 4 °C. The pellet was resuspended in the same buffer and centrifuged at 50,000 ×g for 10 min at 4 °C, and membranes in the resulting pellet were stored at −80 °C until further use.
Saturation binding assays were performed in vitro using AR42J cell membrane suspension (10 µg/well) incubated with increased concentrations (ranging between 0.075 and 10 nM) of the radioligand. […] Membrane-bound radio-peptide was counted in a γ-counter (COBRA 5003, Packard Instruments). The number of binding sites per cell was calculated and fitted to a one-site binding model in GraphPad Prism 8 to determine the dissociation constant (KD) and the number of binding sites (Bmax).

A further series is described as follows: in vivo. Particulars: female, Swiss Nude-Foxn1nu, mouse, in vivo, iv, total radioactivity. Here is the method: (§1) Healthy female Swiss Nude-Foxn1nu mice, of 7 weeks old, were obtained from Charles River (Ecully, France). The animals were housed and cared for according to French and European regulations on animal experimentation. All procedures with animals were submitted to the Institutional Animal Care and Use Committee of Oncodesign (CNREEA Agreement N°91). Animal physical well-being was monitored on a daily basis, and animal weight was measured at least twice a week. Tumours were induced by subcutaneously injecting 1 × 10^7 AR42J cells in 200 μL of RPMI 1640 into the right flank of the mice. In order to improve cell engraftment, AR42J tumour cell implantation was performed 72 h after whole-body irradiation with a γ-source (2 Gy 60Co; BioMep, Bretenières, France).
(§2) All test substances, including the mixture of radiolabelling buffer and 0.9% NaCl solution administered in the vehicle group, were intravenously injected into the caudal vein once a week for 4 consecutive weeks. The treatment schedule was determined by the growth kinetics of the AR42J tumour model. The day of randomisation was considered as day 0. […] Tumour growth delay was estimated by calculating the median time taken to reach a tumour volume of 850 mm^3. Animals were sacrificed once their tumour volume exceeded 1500 mm^3. The study was stopped on day 83 because only 1 and 3 animals remained with non-progressing tumours in groups 3 and 4, respectively.
(§3) Twelve mice (3 in each group) were sacrificed at 96 h after the fourth administration of the test substances to evaluate at the same time toxicity and haematological parameters, and radioactivity uptake in tumours and organs after 4 cycles. The remaining 50 mice (10 in both groups 1 and 4, and 15 in both groups 2 and 3) were either sacrificed for ethical reasons on the last day of the study, on day 83. At 96 h, following the last treatment administration, individual tumours and organs of interest were collected, blotted dry, weighted, fixed in formalin, and the amount of radioactivity present in each organ was quantified using a γ-counter. The radioactivity uptake in tumour and organs was determined and expressed as MBq/g of tissue as well as percentage injected dose/g of tissue (%ID/g).

Series [2] deals with AR42J pancreatic tumour-bearing mice. Nature of the series: In vivo biodistribution (radioactivity uptake in tumour and organs). Particulars: for Tumour radioactivity uptake / Femur radioactivity uptake / Spleen radioactivity uptake / Adrenals radioactivity uptake / Kidneys radioactivity uptake / Tail radioactivity uptake: 96 h after fourth injection, mean; for Tumour radioactivity uptake: SST2 expression High; for Femur radioactivity uptake / Spleen radioactivity uptake: SST2 expression Minimal; for Adrenals radioactivity uptake: SST2 expression Moderate; for Kidneys radioactivity uptake / Tail radioactivity uptake: SST2 expression None; for Correlation of radioactivity uptake with SST2 expression levels in organs: except in the kidneys. Here is the method:
as §1, §2, §3

For series [3], the system named is bone marrow, spleen, kidneys and other organs. Nature of the series: Histopathology of normal organs (treatment-related microscopic observations). The series is classed as in vivo, Swiss Nude-Foxn1nu mice. The following applies: for Spleen, extramedullary haematopoiesis, mean score: vehicle 3.7; for Bone marrow, eosinophilic vacuolated cells, number of mice: vehicle 0. Here is the method:
Once fixed, tumours, spleen, bone marrow (femur), jejunum, colon, tail (injection site), and kidneys were processed to paraffin blocks and tissues slides produced for immunohistochemical analyses or stained with haematoxylin and eosin (H&E) or sirius red (collagen staining) for histopathological examination.
All the slides were evaluated by a board-certified veterinary pathologist (S.L.) using a light microscope (Olympus BX41). The pH2AX and SST2 signal intensities were scored using a semi-quantitative approach (H-score), by multiplying the signal intensity score (0, absent; 1, weak; 2, moderate; 3, strong) with the percentage of labelled cells. The H-score, which ranges from 0 to 300, gives the relative weight of staining in a given tumour sample. Regarding the histopathological examination, the number of mitoses was counted in the areas of tumours with the highest mitotic figures in 1 high-power field at the objective 40. The severity of fibrosis was evaluated on a classical toxicologic pathology scale ranging from 0 (absent) to 5 (severe).

The subject of another series is SST2-positive NETs. The following applies: in vivo; cited from earlier work.
The test system of a further series is kidney. Particulars: human, in vivo; cited from earlier work.
The subject of a further series is human and rat SST2. The arrangement: method as in PMID 19910453. Particulars: ref [10]; cited from earlier work.
Setting [4] is: 15 MBq, Tail uptake (injection site), 15 MBq x 4, 96 h after fourth injection, mean (SEM).
Where [5] appears, read: 15 MBq, Tumour uptake, 15 MBq, i.v. once a week x 4, 96 h after fourth injection, mean (SEM).
Setting [6] is: 15 MBq, compared with [^177Lu]Lu-DOTA-TATE at 15 or 30 MBq, 96 h.

Entries after “also recorded” stand apart in the source; their conditions may differ. Bridge positions count the residues as written; N and C are the ends. Square brackets hold non-standard residues; d marks the D form. Peptide text beside a SMILES is read from it. * marks the point of attachment. DOTA = O=C(O)CN1CCN(CC(=O)O)CCN(CC(=O)*)CCN(CC(=O)O)CC1; dPhe(4-NHCONH2) = NC(=O)Nc1ccc(C[C@@H](N)C(=O)O)cc1; Dihydroorotyl(S) = O=C1C[C@@H](C(=O)*)NC(=O)N1; Phe(4-Cl) = N[C@@H](Cc1ccc(Cl)cc1)C(=O)O; Phe(4-NH2) = Nc1ccc(C[C@H](N)C(=O)O)cc1

T1 sequence (P30680 whole entry): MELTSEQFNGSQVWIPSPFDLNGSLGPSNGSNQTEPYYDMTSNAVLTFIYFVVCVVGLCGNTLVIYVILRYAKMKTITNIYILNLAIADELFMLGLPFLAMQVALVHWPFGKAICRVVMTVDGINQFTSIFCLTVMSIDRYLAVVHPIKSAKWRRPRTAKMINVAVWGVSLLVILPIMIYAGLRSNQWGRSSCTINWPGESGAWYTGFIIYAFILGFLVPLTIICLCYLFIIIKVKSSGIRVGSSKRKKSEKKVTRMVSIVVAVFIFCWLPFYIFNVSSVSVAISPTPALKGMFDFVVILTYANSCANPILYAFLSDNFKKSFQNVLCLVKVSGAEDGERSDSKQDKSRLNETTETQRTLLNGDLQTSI

The term Kd denotes the equilibrium constant for the complex coming apart. A higher Kd goes with lower affinity. As usually defined, the tissue uptake is the percentage of the injected dose found per gram of tissue. `C[C@@H](O)[C@H](NC(=O)[C@@H]1CSSC[C@H](NC(=O)[C@@H](Cc2ccccc2)NC(=O)CN2CCN(CC(=O)O)CCN(CC(=O)O)CCN(CC(=O)O)CC2)C(=O)N[C@@H](Cc2ccc(O)cc2)C(=O)N[C@H](Cc2c[nH]c3ccccc23)C(=O)N[C@@H](CCCCN)C(=O)N[C@@H]([C@@H](C)O)C(=O)N1)C(=O)O` [[^177Lu]Lu-DOTA-TATE, metal not drawn] yielded a Kd in series [1] of 0.48 ± 0.2 nM. Also, the tissue uptake at 96 h was found to be 0.59 %ID/g in “in vivo” (15 MBq, Adrenals uptake); 0.034 %ID/g in the series “in vivo” (15 MBq, Femur uptake); 0.36 %ID/g in “in vivo” (15 MBq, Kidneys uptake); 0.018 %ID/g in the series “in vivo” (15 MBq, Spleen uptake); 0.055 %ID/g in the series “in vivo” (setting [4]); 5.6 %ID/g in “in vivo” (setting [5]). The tissue uptake at 96 h amounted to 0.6 %ID/g in “in vivo” (30 MBq, Adrenals uptake); 0.022 %ID/g in “in vivo” (30 MBq, Femur uptake); 0.51 %ID/g in “in vivo” (30 MBq, Kidneys uptake); 0.015 %ID/g in the series “in vivo” (30 MBq, Spleen uptake); 0.042 %ID/g in “in vivo” (30 MBq, Tail uptake (injection site), 30 MBq x 4, 96 h after fourth injection, mean (SEM)); 5.8 %ID/g in “in vivo” (30 MBq, Tumour uptake, 30 MBq, i.v. once a week x 4, 96 h after fourth injection, mean (SEM)). The Tumour radioactivity uptake is 1.0 MBq/g in series [2] (15 MBq x 4) and 2.2 MBq/g in series [2] (30 MBq x 4). The Femur radioactivity uptake in series [2] (15 MBq x 4) came to 0.006 MBq/g; in series [2] (30 MBq x 4), 0.008 MBq/g. The results for the Spleen radioactivity uptake in series [2] (15 MBq x 4) and in series [2] (30 MBq x 4) were 0.0032 MBq/g and 0.006 MBq/g, respectively. Also, the Adrenals radioactivity uptake is on record as 0.11 MBq/g in series [2] (15 MBq x 4) and 0.23 MBq/g in series [2] (30 MBq x 4). For the same compound, the values for the Kidneys radioactivity uptake in series [2] (15 MBq x 4) and in series [2] (30 MBq x 4) were 0.066 MBq/g and 0.20 MBq/g, respectively. Besides, the Tail radioactivity uptake in series [2] (15 MBq x 4) came out at 0.01 MBq/g; in series [2] (30 MBq x 4), 0.016 MBq/g. In addition, the “Correlation of radioactivity uptake with SST2 expression levels in organs” value in series [2] (15 MBq) is “overall well-correlated with SST2 expression levels in different organs, except in the kidneys”; in series [2] (30 MBq), “overall well-correlated with SST2 expression levels in different organs, except in the kidneys”. In series [3] (30 MBq x 4, 96 h), the “Spleen, extramedullary haematopoiesis, mean score” value was 2.3. Also, the “Bone marrow, eosinophilic vacuolated cells, number of mice” value in series [3] (30 MBq x 4, end of study, 11 mice examined) is “one animal”.
On to `C[C@@H](O)[C@@H]1NC(=O)[C@H](CCCCN)NC(=O)[C@@H](Cc2ccc(NC(N)=O)cc2)NC(=O)[C@H](Cc2ccc(NC(=O)[C@@H]3CC(=O)NC(=O)N3)cc2)NC(=O)[C@H](NC(=O)[C@H](Cc2ccc(Cl)cc2)NC(=O)CN2CCN(CC(=O)O)CCN(CC(=O)O)CCN(CC(=O)O)CC2)CSSC[C@@H](C(=O)N[C@H](Cc2ccc(O)cc2)C(N)=O)NC1=O` [[^177Lu]Lu-satoreotide tetraxetan, metal not drawn] ({DOTA}-[Phe(4-Cl)][dC][Phe(4-NH2)](Dihydroorotyl(S))[dPhe(4-NHCONH2)]KTC[dY]-NH2; disulfide 2-7), for which the Kd in series [1] is 0.088 ± 0.01 nM. The tissue uptake at 96 h in the series “in vivo” (15 MBq, Adrenals uptake) stood at 0.7 %ID/g. In addition, in the series “in vivo” (15 MBq, Femur uptake), the tissue uptake at 96 h worked out at 0.08 %ID/g. The tissue uptake at 96 h in the series “in vivo” (15 MBq, Kidneys uptake) came out at 2.9 %ID/g. Also, the tissue uptake at 96 h in “in vivo” (15 MBq, Spleen uptake) worked out at 0.072 %ID/g. The tissue uptake at 96 h in “in vivo” (setting [4]) is 0.082 %ID/g. For the same compound, in the series “in vivo” (setting [5]), the tissue uptake at 96 h was 20 %ID/g. Moreover, in series [2] (15 MBq x 4), the Tumour radioactivity uptake is recorded as 3.5 MBq/g, the Femur radioactivity uptake is on record as 0.014 MBq/g, the Spleen radioactivity uptake worked out at 0.013 MBq/g and the Adrenals radioactivity uptake came to 0.12 MBq/g. Besides, in series [2] (15 MBq x 4), the Kidneys radioactivity uptake was 0.51 MBq/g and the Tail radioactivity uptake is on record as 0.015 MBq/g. Also, in series [2] (setting [6]), the “Mean femur radioactivity uptake versus [^177Lu]Lu-DOTA-TATE” value is “two times higher”, the “Mean kidney radioactivity uptake versus [^177Lu]Lu-DOTA-TATE” value was “up to eight times higher” and the “Mean tumour radioactivity uptake versus [^177Lu]Lu-DOTA-TATE” value was “up to three times higher; also recorded: approximately three times higher tumour uptake”. Further, the “Correlation of radioactivity uptake with SST2 expression levels in organs” value in series [2] (15 MBq) is “overall well-correlated with SST2 expression levels in different organs, except in the kidneys”. Also, the “Bone marrow, myeloid/erythroid ratio, mean score” value in series [3] (15 MBq x 4, 96 h, vehicle 2.3) turned out to be 3.0. For the same compound, in series [3] (15 MBq x 4, 96 h), the “Spleen, extramedullary haematopoiesis, mean score” value came out at 2.3. Moreover, the “Bone marrow, eosinophilic vacuolated cells, number of mice” value in series [3] (15 MBq x 4, end of study, examined 11 (DOTATATE), 7 (satoreotide)) is on record as “one animal”. Besides, the “Bone marrow, myeloid/erythroid ratio, mean score” value in series [3] (15 MBq x 4, end of study, vehicle 1.2) is on record as 2.7. In the series on SST2-positive NETs, the Safety profile entry was “manageable safety profile”. Also, the “Renal uptake and potential renal toxicity” value in the series with kidney was “limited”.
In the case of Pasireotide, the “Species difference human versus rat SST2” value in the series with human and rat SST2 is “species dissimilarities between human and rat SST2”.

The values are drawn from publication PMC9506113 (Pharmaceuticals, 2022).
